The term stoichiometry N denotes the number of molecules, sites or subunits per partner or assembly.

Data on 1 substance can be found in PMC7058303.

The target of the experiment is Sus1 from S. cerevisiae (recombinant) (Saccharomyces cerevisiae) (UniProt Q6WNK7). As to the kind of experiment: SEC; Superdex 75 10/300 GL, calibrated with molecular weight markers; non-dissociating conditions; elution volume 12 ml. A general note: Size exclusion chromatography separates by hydrodynamic size, large species first.

Consider “Sus1 from S. cerevisiae (recombinant) (from UniProt Q6WNK7 1-96) (natural protein)”, for which the stoichiometry N was found to be 3.
